Reference: patent US20250262210A1 (TRUSTEES OF COLUMBIA UNIVERSITY IN THE CITY OF NEW YORK, published 2025)

Columns and labels:
Assay in all cases: IP/MS, LZTR1 R810W-FLAG, U87
CDC42BPA = CDC42BPA (human, UniProt Q5VT25 1-1732, limits assumed)
Outline: (§1)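 Extracted peptides in 3% acetonitrile/0.1% formic acid ran on a 50 cm C18 column into an Orbitrap Fusion, with MaxQuant identification and spectral counting.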

EPG5 = EPG5 (human, UniProt Q9HCE0 1-2579, limits assumed)
Outline: as §1

LAMB3 = biological target: T1, LAMB3 (human, UniProt Q13751 18-1172)
T1 sequence (looked up): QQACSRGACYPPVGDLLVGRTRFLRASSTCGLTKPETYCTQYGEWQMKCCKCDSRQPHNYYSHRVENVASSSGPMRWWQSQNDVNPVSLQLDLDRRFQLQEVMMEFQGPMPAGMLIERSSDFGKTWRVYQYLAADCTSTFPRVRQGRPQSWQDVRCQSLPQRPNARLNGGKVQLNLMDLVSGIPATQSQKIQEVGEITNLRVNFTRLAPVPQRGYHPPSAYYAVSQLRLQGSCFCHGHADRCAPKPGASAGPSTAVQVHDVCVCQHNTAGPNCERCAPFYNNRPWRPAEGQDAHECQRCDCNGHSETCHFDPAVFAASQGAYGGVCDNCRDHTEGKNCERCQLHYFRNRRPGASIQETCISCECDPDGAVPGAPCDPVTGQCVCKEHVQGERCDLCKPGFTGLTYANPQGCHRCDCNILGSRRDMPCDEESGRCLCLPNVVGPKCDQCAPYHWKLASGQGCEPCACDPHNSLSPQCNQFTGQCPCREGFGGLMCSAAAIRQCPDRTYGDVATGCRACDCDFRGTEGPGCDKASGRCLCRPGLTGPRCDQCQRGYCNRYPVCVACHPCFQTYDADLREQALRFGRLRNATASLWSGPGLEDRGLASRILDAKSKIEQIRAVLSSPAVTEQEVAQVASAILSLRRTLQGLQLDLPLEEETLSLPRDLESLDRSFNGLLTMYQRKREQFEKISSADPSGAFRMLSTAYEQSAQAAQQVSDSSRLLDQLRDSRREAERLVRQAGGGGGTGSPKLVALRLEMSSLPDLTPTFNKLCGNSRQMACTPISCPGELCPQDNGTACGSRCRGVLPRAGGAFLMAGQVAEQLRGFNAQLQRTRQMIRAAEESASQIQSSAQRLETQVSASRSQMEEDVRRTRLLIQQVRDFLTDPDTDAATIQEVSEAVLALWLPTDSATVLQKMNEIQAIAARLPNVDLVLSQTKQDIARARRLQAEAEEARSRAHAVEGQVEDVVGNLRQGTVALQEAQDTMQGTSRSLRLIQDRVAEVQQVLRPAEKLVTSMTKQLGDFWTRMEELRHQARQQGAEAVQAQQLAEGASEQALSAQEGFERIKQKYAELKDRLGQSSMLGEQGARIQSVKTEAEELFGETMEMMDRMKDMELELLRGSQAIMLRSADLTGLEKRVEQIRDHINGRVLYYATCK
Outline: as §1

Measured: binding result

CDC42BPA, sequence (Q5VT25 whole entry, the tested form may be a part): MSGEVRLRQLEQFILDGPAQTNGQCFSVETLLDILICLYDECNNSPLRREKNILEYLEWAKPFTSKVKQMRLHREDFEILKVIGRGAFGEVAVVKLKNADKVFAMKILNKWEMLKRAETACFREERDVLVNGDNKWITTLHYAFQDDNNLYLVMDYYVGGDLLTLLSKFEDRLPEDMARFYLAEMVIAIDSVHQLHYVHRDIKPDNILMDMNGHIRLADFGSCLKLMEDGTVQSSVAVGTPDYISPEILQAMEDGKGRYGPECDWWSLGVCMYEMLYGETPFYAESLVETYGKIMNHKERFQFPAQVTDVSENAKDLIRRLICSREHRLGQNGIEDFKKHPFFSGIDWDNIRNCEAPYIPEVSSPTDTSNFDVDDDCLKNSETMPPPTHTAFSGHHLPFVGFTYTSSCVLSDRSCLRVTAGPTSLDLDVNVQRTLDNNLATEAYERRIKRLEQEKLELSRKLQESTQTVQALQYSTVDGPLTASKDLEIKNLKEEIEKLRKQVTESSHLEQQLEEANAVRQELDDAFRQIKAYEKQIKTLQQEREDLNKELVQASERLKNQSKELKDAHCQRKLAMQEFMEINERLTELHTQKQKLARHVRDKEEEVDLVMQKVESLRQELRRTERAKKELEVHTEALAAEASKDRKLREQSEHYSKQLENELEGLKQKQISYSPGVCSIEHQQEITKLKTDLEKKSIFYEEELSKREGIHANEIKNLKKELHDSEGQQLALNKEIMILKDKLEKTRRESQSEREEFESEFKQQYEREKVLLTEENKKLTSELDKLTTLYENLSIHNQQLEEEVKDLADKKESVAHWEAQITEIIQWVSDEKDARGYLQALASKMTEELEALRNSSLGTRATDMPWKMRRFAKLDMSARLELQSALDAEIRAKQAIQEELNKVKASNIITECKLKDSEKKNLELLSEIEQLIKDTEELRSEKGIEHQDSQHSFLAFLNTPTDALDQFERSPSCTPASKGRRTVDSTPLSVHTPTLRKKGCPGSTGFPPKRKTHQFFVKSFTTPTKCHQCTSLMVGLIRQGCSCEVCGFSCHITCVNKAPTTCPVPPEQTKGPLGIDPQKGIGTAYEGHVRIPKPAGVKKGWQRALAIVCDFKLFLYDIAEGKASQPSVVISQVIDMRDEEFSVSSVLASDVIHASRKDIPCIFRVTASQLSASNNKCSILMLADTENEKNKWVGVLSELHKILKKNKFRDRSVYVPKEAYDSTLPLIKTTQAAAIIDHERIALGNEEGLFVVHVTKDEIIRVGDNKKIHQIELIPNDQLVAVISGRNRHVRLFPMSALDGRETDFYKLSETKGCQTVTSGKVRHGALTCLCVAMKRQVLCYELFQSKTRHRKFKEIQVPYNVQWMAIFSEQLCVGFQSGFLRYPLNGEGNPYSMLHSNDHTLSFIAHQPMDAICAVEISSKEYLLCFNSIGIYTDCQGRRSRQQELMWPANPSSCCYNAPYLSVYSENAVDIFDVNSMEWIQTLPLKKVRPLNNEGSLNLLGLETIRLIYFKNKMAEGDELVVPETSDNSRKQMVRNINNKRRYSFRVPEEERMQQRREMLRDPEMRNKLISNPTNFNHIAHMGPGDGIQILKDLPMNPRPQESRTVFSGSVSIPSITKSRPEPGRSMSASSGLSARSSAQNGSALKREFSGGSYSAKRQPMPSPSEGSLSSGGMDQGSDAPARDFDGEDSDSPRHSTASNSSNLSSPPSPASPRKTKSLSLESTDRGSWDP
EPG5, sequence (Q9HCE0 whole entry): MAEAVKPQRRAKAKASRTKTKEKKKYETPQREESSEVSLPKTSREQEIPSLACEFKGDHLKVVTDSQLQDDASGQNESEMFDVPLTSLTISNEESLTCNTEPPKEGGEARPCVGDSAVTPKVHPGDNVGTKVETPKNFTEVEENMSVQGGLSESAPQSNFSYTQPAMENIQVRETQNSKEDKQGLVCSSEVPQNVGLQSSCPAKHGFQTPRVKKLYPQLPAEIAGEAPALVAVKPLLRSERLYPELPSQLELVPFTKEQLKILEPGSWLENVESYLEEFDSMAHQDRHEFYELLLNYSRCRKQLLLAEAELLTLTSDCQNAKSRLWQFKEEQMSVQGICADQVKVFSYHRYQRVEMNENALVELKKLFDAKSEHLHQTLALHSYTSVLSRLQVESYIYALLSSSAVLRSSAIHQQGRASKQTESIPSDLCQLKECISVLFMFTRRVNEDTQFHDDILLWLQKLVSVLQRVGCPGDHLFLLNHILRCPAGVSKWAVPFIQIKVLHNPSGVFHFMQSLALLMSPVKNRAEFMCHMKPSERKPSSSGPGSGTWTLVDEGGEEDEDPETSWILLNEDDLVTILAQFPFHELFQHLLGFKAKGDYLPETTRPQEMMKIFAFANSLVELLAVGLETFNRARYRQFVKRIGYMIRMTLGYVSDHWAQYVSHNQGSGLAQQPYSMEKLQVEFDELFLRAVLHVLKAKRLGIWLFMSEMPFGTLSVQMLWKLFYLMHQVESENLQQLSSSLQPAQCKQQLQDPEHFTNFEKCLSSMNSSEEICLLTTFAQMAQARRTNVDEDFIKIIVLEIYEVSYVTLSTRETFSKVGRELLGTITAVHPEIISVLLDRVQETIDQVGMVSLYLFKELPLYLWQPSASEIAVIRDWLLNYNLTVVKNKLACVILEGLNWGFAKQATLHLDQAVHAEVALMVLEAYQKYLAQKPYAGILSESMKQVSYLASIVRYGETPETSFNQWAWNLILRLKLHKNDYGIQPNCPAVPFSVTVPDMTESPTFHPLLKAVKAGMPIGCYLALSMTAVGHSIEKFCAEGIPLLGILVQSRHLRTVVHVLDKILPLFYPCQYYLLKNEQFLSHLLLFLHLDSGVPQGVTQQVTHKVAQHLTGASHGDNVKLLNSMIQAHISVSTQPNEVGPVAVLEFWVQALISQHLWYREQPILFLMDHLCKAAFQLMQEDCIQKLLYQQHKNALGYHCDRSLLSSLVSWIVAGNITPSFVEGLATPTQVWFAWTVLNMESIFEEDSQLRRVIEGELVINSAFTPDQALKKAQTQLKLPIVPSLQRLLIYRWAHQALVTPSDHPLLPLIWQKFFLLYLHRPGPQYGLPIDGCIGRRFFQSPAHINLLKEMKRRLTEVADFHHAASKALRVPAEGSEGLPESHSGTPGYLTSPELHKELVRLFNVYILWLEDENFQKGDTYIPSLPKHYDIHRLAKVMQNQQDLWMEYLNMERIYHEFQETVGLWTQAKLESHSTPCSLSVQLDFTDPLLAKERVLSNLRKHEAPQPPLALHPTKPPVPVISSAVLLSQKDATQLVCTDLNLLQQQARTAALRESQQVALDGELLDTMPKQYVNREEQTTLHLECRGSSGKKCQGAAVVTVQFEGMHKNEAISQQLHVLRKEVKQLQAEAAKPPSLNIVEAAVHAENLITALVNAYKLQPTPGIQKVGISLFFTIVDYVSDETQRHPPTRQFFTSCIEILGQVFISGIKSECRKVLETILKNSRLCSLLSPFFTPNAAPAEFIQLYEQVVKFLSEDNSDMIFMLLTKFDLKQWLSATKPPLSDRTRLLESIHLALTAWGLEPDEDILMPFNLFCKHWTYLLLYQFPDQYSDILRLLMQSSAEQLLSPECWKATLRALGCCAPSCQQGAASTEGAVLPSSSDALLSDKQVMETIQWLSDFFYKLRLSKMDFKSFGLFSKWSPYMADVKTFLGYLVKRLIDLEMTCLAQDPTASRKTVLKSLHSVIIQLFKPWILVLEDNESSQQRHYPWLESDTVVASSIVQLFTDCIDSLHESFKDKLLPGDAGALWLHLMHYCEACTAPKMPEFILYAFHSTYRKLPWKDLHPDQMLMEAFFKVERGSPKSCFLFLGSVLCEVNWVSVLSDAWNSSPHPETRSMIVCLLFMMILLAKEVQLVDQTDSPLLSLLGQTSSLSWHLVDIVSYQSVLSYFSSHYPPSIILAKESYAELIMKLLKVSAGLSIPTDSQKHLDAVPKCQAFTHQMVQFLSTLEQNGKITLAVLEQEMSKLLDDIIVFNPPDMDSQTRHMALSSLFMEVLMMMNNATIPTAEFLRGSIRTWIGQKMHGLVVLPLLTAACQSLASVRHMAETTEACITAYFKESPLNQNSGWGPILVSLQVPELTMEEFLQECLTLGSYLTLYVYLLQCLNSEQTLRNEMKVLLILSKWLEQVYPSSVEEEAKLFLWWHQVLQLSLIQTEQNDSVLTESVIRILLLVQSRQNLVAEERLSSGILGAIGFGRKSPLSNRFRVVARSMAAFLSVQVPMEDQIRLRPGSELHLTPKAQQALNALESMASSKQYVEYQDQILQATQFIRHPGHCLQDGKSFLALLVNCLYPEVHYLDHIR

B1: LZTR1 R810W-FLAG (other, human, UniProt Q8N653 1-840, looked up)
chain: MAGPGSTGGQIGAAALAGGARSKVAPSVDFDHSCSDSVEYLTLNFGPFETVHRWRRLPPCDEFVGARRSKHTVVAYKDAIYVFGGDNGKTMLNDLLRFDVKDCSWCRAFTTGTPPAPRYHHSAVVYGSSMFVFGGYTGDIYSNSNLKNKNDLFEYKFATGQWTEWKIEGRLPVARSAHGATVYSDKLWIFAGYDGNARLNDMWTIGLQDRELTCWEEVAQSGEIPPSCCNFPVAVCRDKMFVFSGQSGAKITNNLFQFEFKDKTWTRIPTEHLLRGSPPPPQRRYGHTMVAFDRHLYVFGGAADNTLPNELHCYDVDFQTWEVVQPSSDSEVGGAEVPERACASEEVPTLTYEERVGFKKSRDVFGLDFGTTSAKQPTQPASELPSGRLFHAAAVISDAMYIFGGTVDNNIRSGEMYRFQFSCYPKCTLHEDYGRLWESRQFCDVEFVLGEKEECVQGHVAIVTARSRWLRRKITQARERLAQKLEQEAAPVPREAPGVAAGGARPPLLHVAIREAEARPFEVLMQFLYTDKIKYPRKGHVEDVLLIMDVYKLALSFQLCRLEQLCRQYIEASVDLQNVLVVCESAARLQLSQLKEHCLNFVVKESHFNQVIMMKEFERLSSPLIVEIVRRKQQPPPRTPLDQPVDIGTSLIQDMKAYLEGAGAEFCDITLLLDGHPRPAHKAILAARSSYFEAMFRSFMPEDGQVNISIGEMVPSRQAFESMLRYIYYGEVNMPPEDSLYLFAAPYYYGFYNNRLQAYCKQNLEMNVTVQNVLQILEAADKTQALDMKRHCLHIIVHQFTKVSKLPTLWSLSQQLLLDIIDSLASHISDKQCAELGADI
notes: Stably expressed in U87 cells by lentivirus; also called LZTR1-FLAG-R810W; LZTR1 RW; not shown: FLAG tag
binds: CDC42BPA | EPG5 | LAMB3
